Target: Mannan-binding lectin (MBL), P11226
Sequence (P11226 21-248): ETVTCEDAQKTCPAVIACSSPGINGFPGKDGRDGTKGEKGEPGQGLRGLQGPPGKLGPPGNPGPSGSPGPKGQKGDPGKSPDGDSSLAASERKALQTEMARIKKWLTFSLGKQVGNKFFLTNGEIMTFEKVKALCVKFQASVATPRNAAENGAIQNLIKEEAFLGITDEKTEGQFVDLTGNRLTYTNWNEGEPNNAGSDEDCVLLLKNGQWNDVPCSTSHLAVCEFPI

B1: MASP-2 (MBL-associated serine protease 2), wild type, recombinant (protein)
chain: TPLGPKWPEPVFGRLASPGFPGEYANDQERRWTLTAPPGYRLRLYFTHFDLELSHLCEYDFVKLSSGAKVLATLCGQESTDTERAPGKDTFYSLGSSLDITFRSDYSNEKPFTGFEAFYAAEDIDECQVAPGEAPTCDHHCHNHLGGFYCSCRAGYVLHRNKRTCSALCSGQVFTQRSGELSSPEYPRPYPKLSSCTYSISLEEGFSVILDFVESFDVETHPETLCPYDFLKIQTDREEHGPFCGKTLPHRIETKSNTVTITFVTDESGDHTGWKIHYTSTAQPCPYPMAPPNGHVSPVQAKYILKDSFSIFCETGYELLQGHLPLKSFTAVCQKDGSWDRPMPACSIVDCGPPDDLPSGRVEYITGPGVTTYKAVIQYSCEETFYTMKVNDGKYVCEADGFWTSSKGEKSLPVCEPVCGLSARTTGGRIYGGQKAKPGDFPWQVLILGGTTAAGALLYDNWVLTAAHAVYEQKHDASALDIRMGTLKRLSPHYTQAWSEAVFIHEGYTHDAGFDNDIALIKLNNKVVINSNITPICLPRKEAESFMRTDDIGTASGWGLTQRGFLARNLMYVDIPIVDHQKCTAAYEKPPYPRGSVTANMLCAGLESGGKDSCRGDSGGALVFLDSETERWFVGGIVSWGSMNCGEAGQYGVYTKVINYIPWIENIISDF
Question: How did the “MBL pathway activity (C4b deposition in mannan coated wells)” value turn out when B1 was run?
Answer: Its value is “Restoration of the MBL pathway was also achieved by adding recombinant MASP-2 to the patient serum”.
